Data on two molecules can be found in paper PMC5278347, “Identification and Characterization of a Plastidic Adenine Nucleotide Uniporter (OsBT1-3) Required for Chloroplast Development in the Early Leaf Stage of Rice” (Scientific Reports, 2017).

Series [1] deals with T1, OsBT1-3 (Oryza sativa, UniProt A0A0P0WYD6).
T1 construct: gene Os06g0602700; E. coli Rosetta(DE3)pLysS, intact cells; antibody peptide VPGTEAESVNEEEVVDGK
T1 sequence (A0A0P0WYD6 1-423): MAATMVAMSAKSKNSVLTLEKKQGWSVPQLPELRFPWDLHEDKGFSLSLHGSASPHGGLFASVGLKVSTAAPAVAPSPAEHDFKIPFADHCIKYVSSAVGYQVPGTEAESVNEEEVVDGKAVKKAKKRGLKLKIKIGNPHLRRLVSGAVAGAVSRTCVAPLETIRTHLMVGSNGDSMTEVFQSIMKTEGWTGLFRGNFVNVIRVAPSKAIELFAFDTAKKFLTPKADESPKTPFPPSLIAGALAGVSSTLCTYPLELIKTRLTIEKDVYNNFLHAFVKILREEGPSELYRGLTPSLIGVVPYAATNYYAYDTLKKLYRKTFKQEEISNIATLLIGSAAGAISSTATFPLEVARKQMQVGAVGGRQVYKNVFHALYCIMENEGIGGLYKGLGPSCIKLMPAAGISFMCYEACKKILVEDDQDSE
The series can be described thus: inhibition of [α^32P]-ATP uptake into E. coli cells. The series is classed as cell-based. The conditions noted are these: 2000 µM; 2 mM PLP; lysozyme-treated cells; ATP printed as 50 mM (probably μM).

Substrate in series [2]: Nc1ncnc2c1ncn2[C@@H]1O[C@H](COP(=O)(O)OP(=O)(O)O)[C@@H](O)[C@H]1O
The series can be described thus: cells, lysate or membranes. The series is classed as cell-based, Oryza sativa. Conditions: labelled compound ([α^32P]-ADP); 0 to 900 μM; IPTG-induced cells, non-induced background subtracted.

Substrate in series [3]: Nc1ncnc2c1ncn2[C@@H]1O[C@H](COP(=O)(O)O)[C@@H](O)[C@H]1O
The series is described as follows: cells, lysate or membranes. The series is classed as cell-based, Oryza sativa. Conditions: labelled compound ([^14C]-AMP); 0 to 900 μM; IPTG-induced cells, non-induced background subtracted.

Substrate in series [4]: Nc1ncnc2c1ncn2[C@@H]1O[C@H](COP(=O)(O)OP(=O)(O)OP(=O)(O)O)[C@@H](O)[C@H]1O
The series is described as follows: cells, lysate or membranes. The series is classed as cell-based, Oryza sativa. The conditions noted are these: labelled compound ([α^32P]-ATP); 0 to 900 μM; IPTG-induced cells, non-induced background subtracted.

With `Cc1ncc(COP(=O)(O)O)c(C=O)c1O` [PLP], the “Transport Rate (%)” value in series [1] is given as 27.4 ± 1.9%.

B1: OsBT1-3 (Oryza sativa Japonica Group) (protein)
chain: T1 sequence (A0A0P0WYD6 1-423)
notes: E. coli Rosetta(DE3)pLysS, intact cells; antibody peptide VPGTEAESVNEEEVVDGK
Take B1: the values for the Km in series [2], in series [3] and in series [4] were 101.7 ± 7.62 µM, 106.1 ± 3.45 µM and 83.5 ± 2.74 µM, respectively.
